These results are taken from patent publication US10100120B2, “Antibody which specifically binds to human CRTH2” (KYOWA HAKKO KIRIN CO., LTD, priority 2015, dated 2018).

Where a chain is given by its changes, count along the chain named.

Experiment [1] concerns differentiation-induced human mast cells. Kind of experiment: Reactivity against differentiation-induced human mast cells. In kind it is binding. Particulars: mast cells stimulated by IgE and crosslinking antibody; antibody 10 μg/mL; FIG. 14. On the procedure:
Mast cells were prepared according to the method described in Nature Protocols 2006, 1(4), 2178 to 2183. The mast cells after 11 weeks from the start of differentiation induction were washed with SM and seeded in a 96-well plate such that each well had 5×10^4 cells, and PE anti-human CD203c (E-NPP3) Antibody (Biolegend Inc.), Brilliant Violet 421 (trademark) anti-human CD117 (c-kit) Antibody (Biolegend Inc.), and Anti-Human Fc epsilon Receptor I alpha (FcεR1) PE (eBioscience) were added thereto to cause a reaction at 4° C. for 1 hour. After the cells were washed again, the cells were suspended with SM, and the fluorescent intensity was analyzed by flow cytometry (BD Biosciences, FACS CantoII). […]
After the cells were washed, streptavidin, Alexa Fluor 647 conjugate (Molecular Probes) diluted with SM was added to wells to which biotin-labeled LV0HV1, hu19A2 v52, ch8B1 v1, ch3C12, or ch31A5 was added, goat anti-Rat IgG Alexa 647 (Molecular Probes) diluted with SM was added to wells to which BM16 was added, and goat anti-Mouse IgG Alexa 647 (Molecular Probes) diluted with SM was added to wells to which 301108 was added at a final concentration of 10 μg/mL to cause a reaction at 4° C. for 40 minutes. After the cells were washed again, the cells were suspended with SM, and the fluorescent intensity was analyzed by flow cytometry (BD Biosciences, FACS CantoII).

The subject of the next experiment is human eosinophils. In words: Antagonist activity using shape change of human eosinophils as index (Example 19). In kind it is cell-based. Particulars: antibody 10 μg/mL or small molecule 10 μM, DKPGD2 0.1-1000 nM; FIG. 16. On the procedure: Eosinophils were separated from human peripheral blood in the same manner as in Example 11. The isolated human eosinophils were suspended with Dulbecco's phosphate buffered saline (hereinafter, referred to as D-PBS (−)) (NACALAI TESQUE, Inc.) and performed a reaction in a 5% CO2 incubator at 37° C. for 1 hour and 30 minutes. Thereafter, the cells were seeded in a 96-well plate at 2×10^5 cells/well using 10% FBS-containing RPMI1640. Next, an isotype control antibody [CELL LAB Rat IgG2b Isotype Control (Beckman Coulter Inc.)] at a final concentration of 10 μg/mL or Lym2 antibody; or small molecular CRTH2 antagonist 00000459 (Cayman Chemical) at a final concentration of 10 μM as a positive control, was added thereto to cause a reaction in a 5% CO2 incubator at 37° C. for 30 minutes.
Next, DKPGD2 (Cayman Chemical) at each of final concentrations of 0.1, 1, 10, 100, and 1000 nM was added thereto to cause a reaction in a 5% CO2 incubator at 37° C. for 60 minutes. After the reaction, the cells were washed twice with ice-cold PBS, Fixation Buffer (BD Biosciences) was added at 200 μL/well, and the resultant was suspended well and allowed to stand at 4° C. for 30 minutes. After that, the cells were washed twice with SM, and shape change of eosinophils was analyzed by flow cytometry (BD Biosciences, FACS CantoII).
The shape change of eosinophils was analyzed based on an increase in Forward Scatter Light (FSC) plot which is an index of the cell size, the cell surface area, or the cell diameter in the analysis using flow cytometry and the percentage (%) of eosinophils detected in the gate of high FSC was calculated based on the FSC of DKPGD2-untreated eosinophils.

B1: LV0HV1: humanized Lym2 antibody, VL LV0 (SEQ ID NO: 33), VH HV1 (SEQ ID NO: 51) (antibody, V domains shown)
VH: EVQLVESGGGVVQPGRSLRLSCAASGFTFSNYYMAWVRQAPGKGLEWVATISYDGSSTYYRDSVKGRFTISRDNAKNSLYLQMNSLRAEDTATYYCARHRGYYYSGAGYFDYWGQGTMVTVSS
VL: DIVMTQTPLSLPVTPGESASISCRSSQSLEYSDGYTYLEWYLQKPGQSPQVLIYGVSNRFSGVPDRFSGSGSGTDFTLKISRVEAEDVGVYYCFQATHDPLTFGQGTKLEIK
As to B1, in experiment [1], the “reactivity against mast cells” value was “did not exhibit reactivity”.

B2: Lym2 antibody: rat anti-human CRTH2 monoclonal antibody from hybridoma Lym2, rat IgG2b; VH SEQ ID NO: 17, VL SEQ ID NO: 19 (antibody, listed as Rattus norvegicus, V domains shown)
VH: B1 VH with V11L, L18M, R19K, G42K, N77S, S78T, N84D, A88S, T117V
VL: DVVLTQTPVSLSVTLGDQASISCRSSQSLEYSDGYTYLEWYLQKPGQSPQVLIYGVSNRFSGVPDRFIGSGSGTDFTLKISRVEPEDLGVYYCFQATHDPLTFGSGTKLEIK
Turning to B2, in the experiment with human eosinophils, the “inhibition of DKPGD2-dependent shape change of eosinophils (antagonist activity)” value is reported as “didn't inhibit”.
